Where a chain is given by its changes, count along the chain named.
T1: Card1 (Tresu_2185, Cad1) (Treponema succinifaciens, UniProt F2NWD3 1-372)
T1 sequence: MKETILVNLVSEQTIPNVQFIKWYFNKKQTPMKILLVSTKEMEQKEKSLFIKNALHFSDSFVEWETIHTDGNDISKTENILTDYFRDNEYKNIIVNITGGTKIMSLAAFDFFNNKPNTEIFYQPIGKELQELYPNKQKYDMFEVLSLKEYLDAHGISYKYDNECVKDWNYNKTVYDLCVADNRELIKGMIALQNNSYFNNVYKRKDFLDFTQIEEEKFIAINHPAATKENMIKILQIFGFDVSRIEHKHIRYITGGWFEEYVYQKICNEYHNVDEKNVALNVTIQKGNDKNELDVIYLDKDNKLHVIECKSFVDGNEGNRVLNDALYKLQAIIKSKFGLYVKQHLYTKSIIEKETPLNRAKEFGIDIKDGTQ

T2: Card1 D294N (Treponema succinifaciens, UniProt F2NWD3 1-372, D294N)
T2 sequence: T1 sequence with D294N

B1: cA6 (cyclic hexaadenylate) (ssRNA)
RNA: AAAAAA
modifications: cyclic 3'-5' oligoadenylate; no free ends
B2: cA4 (cyclic tetraadenylate) (ssRNA)
RNA: AAAA
modifications: cyclic 3'-5' oligoadenylate; no free ends

What was measured:
Card1 (Tresu_2185, Cad1) = target: T1, Card1 (Tresu_2185, Cad1); assay: ITC
Card1 D294N = target: T2, Card1 D294N; assay: crystal structure

Binder | Kd (Card1 (Tresu_2185, Cad1)) | binding result (Card1 D294N)
B1 | 78 nM | 
B2 | 15 nM | binds

Source: publication PMC7906951
